For eleven sequences, protein production results are on record in a protein production outcome set (Wang et al. 2014).

The data set is described as follows: label from the status in PepcDB records.
Regarding “MTSRIQMHRTSPPPAYGTSAPPSGFTLGASTTSTLQRWALPLLLVAFGLFYLLPLTSHGLWIPDETRYAQISQEMLLSGDWVAPHFMGIRYFEKPIAGYWLIAIGQAVFGDNLFGVRIASALSTGLSVLLAYLITRRMWNDPRKSFAAALLYMSFGLIAGQAGYSNLDPQFTLWVNLSLVALWFALDGRSTRERLLAWAGLGVACGMGFMTKGFLAWLLPVLIALPYMIWQRRLGELVRYGLVAVLVAIGISLPWVLSIHAHEPDFWRFFFWHEHIRRFAADNAQHTRPWWFYLPLLVASSLPWAALLPGTFMQAWKDKRQAPTGFLLLWFLLPLAFFSLSRGKLPTYIMPCLLPLAVLMGSALIDRINAIQGRSIRINSLLNLLIGVAAMVALLYIQLTRPVYGHNEMLGLSLVFIMLMGWIIANLLPAARPLQYWPAPALGIWLLVALLPAGMPGFIVHNQMPDQFIKEHIEELRQTKTLLSNDLGAASALAWRLQRPEVTLYNTEGELKYGLAYADSAQRKVSMAEVGQWVSEARKQGSVGVVMRVKDVVESEEVALLPPGGKRYEEGNMLVLILPQSQP”, the protein production entry is listed as “failed”.
For the sequence “MTSRLRALGGRINNIRTSELPKEKTRSEVTCSIRFLDGLVQTFKVNKQDLGQSLLDMAYGHLGVTEKEYFGLQHGDDPVDSPRWLEASKPLRKQLKGGLPCILHFRVRYFIPDPNTLQQEQTRHLYFLQLKMDVCEGRLTCPLNSAVVLASYAVQSHIGDFNSSIHHPGYLADSQFIPDQNDDFLSKVESLHEQHSGLKQSEAESCYINIARTLDFYGVELHGGRDLHNLDLMIGIASAGIAVYRKYICTSFYPWVNILKISFKRKKFFIHQRQKQAESREHIVAFNMLNYRSCKNLWKSCVEHHSFFQAKKLLPQEKNVLSQYWTLGSRNPKKSVNNQYCKKVIGGMVWNPVMRRSLSVERLETKSLPSRSPPITPNWRSPRLRHEIRKPRHSSADNLANEMTYITETEDVFYTYKGSLSPKDSDSEVSQNHSPHRGSLSENNPAQSCLTQKSSSSVSPCSNAPGSFSPDGVDQQFLEDYHKVTKGGSIEEASQYYCDKNDDGDGYLVLIRITPDKEGRFGFNLKGGVDQKMPLVVSRINPESPADTCMPKLNEGDQIVLINGRDISEHTHDQVVMFIKASRESHSRELALVIRRKAVRSLAEIRSEDELSQLFPEAMFPACPEGGDSLEGSMELLKKGLESGTVLIQFEQLYRKKPGLAVTFAKLPQNLDKNRYKDVLPYDTTRVLLQGNEDYINASYVNMEIPAANLVNKYIATQGPLPHTCAQFWQVVWDQKLSLVVMLTTLTERGRTKCHQYWPDPPDIMDHGIFHIQCQAEDCTIAYVSREMLVTNTETGEEHTVTHLQYVAWPDHGVPDDSSDFLEFVKYVRSLRVGGEPALVHCSAGIGRTGVLVTMETAMCLIERNLPVYPLDIVRKMRDQRAMMVQTSSQYKFVCEAILRVYEEGLVQTLDPS”, the protein production entry is on record as “failed”.
To “MTSRRLEESMGAVQMGLVNMFKGFQSKVLPPLSPKVVTEEEVNRMLTPSEFLKEMSLTTEQRLAKTRLMCRPQIIELLDMGETTHQKFSGIDLDQALFQPFPSEIIFQNYTPCEVYEVPLILRNNDKIPRLVKVVEESSPYFKVISPKDIGHKVAPGVPSIFRILFTPEENKDYAHTLTCVTEREKFIVPIKARGARAILDFPDKLNFSTCPVKYSTQKILLVRNIGNKNAVFHIKTCRPFSIEPAIGTLNVGESMQLEVEFEPQSVGDHSGRLIVCYDTGEKVFVSLYGAAIDMNIRLDKNSLTIEKTYISMANQRTITIHNRSNIIAHFLWKVFATQQEEDREKYRACDDLIKEEKDETDEFFEECITDPLLREHLSVLSRTFANQRRLVQGDSKLFFNNVFTVEPLEGDVWPNSSAEITVYFNPLEAKLYQQTIYCDILGREIRLPLRIKGEGMGPKIHFNFELLDIGKVFTGSAHCYEAILYNKGSIDALFNMTPPTSALGACFVFSPKEGIIEPSGVQAIQISFSSIILGNFEEEFLVNVNGSPEPVKLTIRGCVIGPTFHFNVPALHFGDVSFGFPHTLICSLNNTSLIPMTYKLRIPGDGLGHKSISYCEQHVDYKRPSWTKEEISSMKPKEFTISPDCGTIRPQGFAAIRVTLCSNTVQKYELALVVDVEGIGEEVLALLITARYCSPACSSPESPPSLQ” belongs “not failed”; to “MTSSDLPVMLFAAGFGTRMGDLTRTRPKPLIEVAGRPLVDHTLDLARAVSPPRIVANLHYLAPLLAAHLAPQGVLLSHEQPDILDTGGGLRQALPLLAAETVFTANSDAIWSGPNPFALLAEAWEPARMDALLMCVPVGQAIGHAGHGDFSRDAQGRIERGPGLIYGGVQIVKTGGLGDFDMPAFSLNLLWNRIGAAGRLFALEYPGRWCDVGHPGGIALAEEMLRDVLEHHHHHH”, “not failed”; to “MTSTTTAPLVGLVMGSDSDWPVMEAAADALAEFGIPFEADVVSAHRMPTEMIRYGQTAHERGLRVIIAGAGGAAHLPGMLASVTPLPVIGVPVPLKTLDGMDSLLSIVQMPAGVPVATVSIAGARNAGLLAVRILASGTDDLASKLRADLLTFAQELNDVATKKGENLRHKVEEVFSPANASARSSR”, “failed”.
To “MTSTTTSQQELFRFLEDRFACAQACTECARACALRASLVDPDGTENQELVRRRGIMCAEVCDATCRVLSEQNQVDEAAIRAQLEWCRQVCLESAHVFDDHPGAEESAQACRDCARACGEFLATLR” belongs “failed”.
With “MTSVESTAHIEKRFIELKNIWFIIASLCYVAAIGFIIAYFVGGYSPYISIAVMWGCIGSLDMILGILRRKKEK”, the protein production entry was “failed”.
Consider “MTSVLEKRHAPKQRAEAQRALTGEDFVGDEAPGKDLPSRPRLDPAEFIKANMGLVPVLALPEIRFYTAHPGSGLRRLVDPEDDADADDDTPEPQPPYWAYAWAGGAVLARHILNHPKTVAGRRVLDLGAGSGIVGIAAAKAGASEVIAAEIDRNGVAAIGLNAAANGVEITIVHQDITMGSPPAVDLVLAGDVFYGREVALRVIPFLDRCLAAGIEVLVGDPRRHDLPLSRLRLLAEYQVPDFGDAKDAALKPSGVFRFEAETAPALAGAIKPSP”, for which the protein production entry is “failed”.
For the sequence “MTSVRGIAPLPSKKSSDRQKRLAMSTFERYLTLWVALCIVVGIGLGHLMPGAFQVIGAAEIAKVNLPVAALIWLMIIPMLVRIDFAALGRVREHWRGIGVTLFINWAVKPFSMAALAWLFVGYLFRPYLPADQINSYIAGLIILAAAPCTAMVFVWSNLTKGEPHFTLSQVALNDTIMVFAFAPIVGLLLGLSAITVPWDTLVLSVVLYIVVPVIIAQGLRRWALASGGEAQLQRLLGIFQPLSLVALLATLVLLFGFQGEQIIRQPLVIALLAVPILIQVYFNAGLAYLLNRLSGEQHCVAGPSALIGASNFFELAVAAAISLFGFESGAALATVVGVLIEVPVMLTVVAIVNRSKRWYEADQRAPVARTPG”, the protein production result was “failed”.
Take “MTSYTAAGLGELVQRDGALVNGRIYTDPEIFGLEMERIFSKVWVYVGHESQVANPGDYMTGYLAQQPIILTRDRAGQIHVLFNRCTHRGAKIVNRERGNERLLTCMYHGWAFGHDGELRGIPLKKDFPAEAVEPCKASLARPPRVDAYRGFIFASLNPDVEPLRDYLGAAASGIDEIVDRAPAGTIRLSAGCHRYIYEGNWKLQTDNLGDMYHPVACHSSTVDEDGKQFKRRPGDEGGRAAFLGADGEPIVIQTGVRGFLRGHSSEASLFGANDIVKEETRQRGGIIDEYRSLLIEQHGVEKTDEILKNRRHSMTLFPNLDVLMVQTSVRVVIPLAYNRTEVRIYPVHLDGAPDELNRQIIKFLNITHSAASFIQTDDLEAFKRQQEGLAARSPQWLIVARGQGSEIDEGNGAYFGPRASEVGQRMRHQYWRELMMAE”: the protein production entry is recorded as “failed”.
In the case of “MTTDQHQEILRTEGLSKFFPGVKALDNVDFSLRRGEIMALLGENGAGKSTLIKALTGVYHADRGTIWLEGQAISPKNTAHAQQLGIGTVYQEVNLLPNMSVADNLFIGREPKRFGLLRRKEMEKRATELMASYGFSLDVREPLNRFSVAMQQIVAICRAIDLSAKVLILDEPTASLDTQEVELLFDLMRQLRDRGVSLIFVTHFLDQVYQVSDRITVLRNGSFVGCRETCELPQIELVKMMLGRELDTHALQRAGRTLLSDKPVAAFKNYGKKGTIAPFDLEVRPGEIVGLAGLLGSGRTETAEVIFGIKPADSGTALIKGKPQNLRSPHQASVLGIGFCPEDRKTDGIIAAASVRENIILALQAQRGWLRPISRKEQQEIAERFIRQLGIRTPSTEQPIEFLSGGNQQKVLLSRWLLTRPQFLILDEPTRGIDVGAHAEIIRLIETLCADGLALLVISSELEELVGYADRVIIMRDRKQVAEIPLAELSVPAIMNAIAA”, the protein production result is recorded as “failed”.
